{
  "source": "paper PMC7269643",
  "about": "(Science Advances, 2020)",
  "molecular_target": "the molecule itself",
  "experiment": "AUC",
  "data": [
    {"protein": "VapB22 antitoxin (Rv2830c) from Mycobacterium tuberculosis, expressed alone from pET28b (natural protein) MTATEVKAKILSLLDEVAQGEEIEITKHGRTVARLVAATGPHALKGRFSGVAMAAADDDELFTTGVSWNVS", "values": [
      {"measurement": "stoichiometry N", "result": 2}
    ]}
  ]
}
